# Results as given in US20250382602.
# Positions count from the first letter of the chain named.
# Columns and labels:
# [1] = molecular target: T1, Dda 1993 K177Y K177Y (Enterobacteria phage T4) (UniProt P32270); conditions: nanopore translocation; background mutations not given
# T1 sequence: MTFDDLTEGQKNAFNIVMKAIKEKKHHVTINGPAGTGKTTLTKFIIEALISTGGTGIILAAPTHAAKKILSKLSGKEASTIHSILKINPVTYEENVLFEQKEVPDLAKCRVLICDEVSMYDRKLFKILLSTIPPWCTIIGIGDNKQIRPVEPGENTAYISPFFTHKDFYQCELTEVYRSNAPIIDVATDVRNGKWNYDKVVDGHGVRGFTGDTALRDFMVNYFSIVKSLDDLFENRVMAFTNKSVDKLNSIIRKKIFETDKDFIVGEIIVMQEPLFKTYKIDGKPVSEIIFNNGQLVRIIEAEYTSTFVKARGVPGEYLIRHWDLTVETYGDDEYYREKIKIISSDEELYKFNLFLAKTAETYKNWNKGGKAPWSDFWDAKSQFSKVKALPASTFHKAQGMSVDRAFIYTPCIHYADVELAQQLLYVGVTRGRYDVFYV
# [2] = molecular target: T2, Dda 1993 K177G K177G (Enterobacteria phage T4) (UniProt P32270); conditions: nanopore translocation; background mutations not given
# T2 sequence: T1 sequence with Y177G
# [3] = molecular target: T3, Dda 1993 K177N K177N (Enterobacteria phage T4) (UniProt P32270); conditions: nanopore translocation; background mutations not given
# T3 sequence: T1 sequence with Y177N
# [4] = molecular target: T4, Dda 1993 K177F K177F (Enterobacteria phage T4) (UniProt P32270); conditions: nanopore translocation; background mutations not given
# T4 sequence: T1 sequence with Y177F
# [5] = molecular target: T5, Dda 1993 K177L K177L (Enterobacteria phage T4) (UniProt P32270); conditions: nanopore translocation; background mutations not given
# T5 sequence: T1 sequence with Y177L
# [6] = molecular target: T6, Dda 1993 K358I K358I (Enterobacteria phage T4) (UniProt P32270); conditions: nanopore translocation, FLO-MIN106; background mutations not given
# T6 sequence: T1 sequence with Y177K, K358I
substance,measurement,setting,value
barcoded 3.6 kb DNA analyte ligated to sequencing Y adaptor,activity (bps speed delta vs control),[1],-43.9
same,activity (bps speed delta vs control),[2],-27.6
same,activity (bps speed delta vs control),[3],2.4
same,activity (bps speed delta vs control),[4],-33.4
same,activity (bps speed delta vs control),[5],51.4
same,activity (bps speed delta vs control),[6],-40.2
